Measured values published in the Human Domainome abundance scans (Beltran et al. 2025).

B1: Histone-lysine N-methyltransferase SETD2, residues 2382 to 2430; numbered along this chain, Q9BYW2 (parent)
chain: SPPKPKTIVLPPNWKTARDPEGKIYYYHVITRQTQWDPPTWESPGDDAS

Variants of: B1
Test: abundance fitness (aPCA) (normalised: wild type 0, dead -1); higher = more abundant; growth selection in yeast, the domain comes from the species named
Details: Homo sapiens

Abundance fitness, by site and new letter:
N13: E -0.61; D -0.059; C -0.292; S -0.362; Y 0.107; P -0.692; Q -0.148; V -0.523; G -0.191; H -0.052; M 0.064; W -0.144; L -0.039; A -0.581; F 0.127; T -0.123
W14: P -1.03; E -0.868; Y -0.566; L -0.925; S -0.925; H -0.615; Q -0.763; G -0.855; C -1.02; M -0.721; V -0.882; D -0.74; A -0.865; T -0.935
T16: A 0.027; I -0.15; G -0.203; R -0.052; L 0.049; C -0.213; P -0.341; W -0.026; D -0.47; Q 0.136; K -0.059; H 0.095; S 0.168; Y -0.164; N -0.723; M 0.218
V9: R 0.025; Q -0.097; N 0.21; M 0.228; K 0.022; I 0.132; W -0.24; Y -0.362; P -0.538; T 0.123; L -0.075; S -0.093
D19: Y -0.601; V -0.404; I -0.584; A -0.537; R -0.535; S -0.103; C -0.725; Q -0.442; H 0.027; L -0.407; W -0.889; M -0.172; P -0.426; T 0.102; E -0.314
R18: L -0.404; G -0.79; V -0.26; M -0.086; D -0.817; T -0.112; Y -0.105; P -0.576; K -0.072; H -0.286; N 0.099; S -0.543; Q -0.482; I -0.095; W -0.31; A -0.467; E -0.248; F -0.424
L10: C -0.191; Q -0.529; Y -0.249; F -0.142; R -0.647; A -0.759; M -0.314; V -0.242; H -0.255; N -0.46; D -0.489; G -0.564; T -0.431; K -0.553; I -0.026; S -0.684
K15: R 0.11; Q -0.291; H -0.153
P11: V -0.689; S -0.453; T -0.682; M -0.374; F -0.43; A -0.388; Y -0.666; E -0.5; C -0.694; Q -0.186; L -0.279; I -0.84; W -0.811; D -0.156; K -0.281; N -0.371
P20: C -0.348; A -0.166; D -0.122; E -0.074; H -0.157; G -0.03; F -0.398
A17: E -0.301; L -0.212; Y -0.128; S -0.155; F -0.543; N 0.038; W -0.77; P -0.747; R 0.023; M -0.024; H -0.728; K -0.131; D -0.092; C -0.146; G -0.022; T -0.217; Q -0.845; V -0.242; I -0.184
P12: W -0.309; T 0.092; K 0.048; E 0.105; R 0.009; I -0.451; S -0.195; A 0.153; C -0.844; Q -0.238; M -0.007; D -0.013; F -0.402; H -0.528; G -0.398
